Assay results reported in patent US20200317768A1 (published 2020).

What was measured:
Human latent myostatin = target: T1, Human latent myostatin (human, UniProt O14793 25-266; O14793 267-375); experiment: SPR (BIACORE) as in Example 7; antigen not given, values equal those for human latent myostatin in Table 7
T1 construct: Biotinylated in the ELISAs; also called human myostatin latent form
T1 sequence 1: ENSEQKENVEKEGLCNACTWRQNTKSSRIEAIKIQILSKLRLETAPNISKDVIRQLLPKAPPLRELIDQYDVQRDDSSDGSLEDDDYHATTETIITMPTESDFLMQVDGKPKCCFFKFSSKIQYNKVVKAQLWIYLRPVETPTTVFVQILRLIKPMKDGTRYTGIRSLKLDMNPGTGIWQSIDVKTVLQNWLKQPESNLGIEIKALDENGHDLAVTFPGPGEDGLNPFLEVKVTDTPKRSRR
T1 sequence 2: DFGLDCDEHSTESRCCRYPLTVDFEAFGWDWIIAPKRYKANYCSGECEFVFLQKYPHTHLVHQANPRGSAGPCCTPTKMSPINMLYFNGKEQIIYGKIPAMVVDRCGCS
Description: The kinetic parameters of anti-latent myostatin antibodies against human, cynomolgus monkey (cyno), and mouse latent myostatin were assessed at 37° C. at pH7.4 using a BIACORE® T200 instrument (GE Healthcare). ProA/G (Pierce) was immobilized onto all flow cells of a CM4 chip using amine coupling kit (GE Healthcare). Anti-latent myostatin antibody and analytes were prepared in ACES pH7.4 (20 mM ACES, 150 mM NaCl, 1.2 mM CaCl₂), 0.05% TWEEN® 20, 0.005% NaN₃). […] Then human, cyno, or mouse latent myostatin was injected at 3.125 to 50 nM prepared by two-fold serial dilution, followed by dissociation. The sensor surface was regenerated with 25 mM NaOH. Kinetic parameters were determined by processing and fitting the data to a 1:1 binding model using BIACORE® T200 Evaluation software, version 2.0 (GE Healthcare).
Humanized antibodies were transiently expressed in FS293-F cells, and HEK Blue Assay and BIACORE® analysis were carried out as described above.

[1] = target: T2, Cynomolgus monkey latent myostatin (cynomolgus monkey, UniProt Q95J86 25-266; Q95J86 267-375); experiment: SPR (BIACORE T200), 37 C, pH7.4, avidity condition (capture 185 RU), 1:1 fit; pH 7.4
T2 construct: signal 1-24; also called Cyno latent myostatin
T2 sequence 1: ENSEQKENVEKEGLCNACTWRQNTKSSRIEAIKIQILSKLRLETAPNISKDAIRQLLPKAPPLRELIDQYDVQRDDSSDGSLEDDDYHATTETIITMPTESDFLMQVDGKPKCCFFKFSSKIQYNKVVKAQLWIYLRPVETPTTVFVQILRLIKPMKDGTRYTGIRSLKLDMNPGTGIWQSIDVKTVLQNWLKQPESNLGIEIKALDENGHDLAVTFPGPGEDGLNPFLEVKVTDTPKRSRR
T2 sequence 2: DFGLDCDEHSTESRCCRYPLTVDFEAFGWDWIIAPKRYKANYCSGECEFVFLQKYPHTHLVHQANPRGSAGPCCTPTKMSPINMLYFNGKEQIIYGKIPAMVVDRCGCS

Mouse latent myostatin = target: T3, Mouse latent myostatin (mouse, UniProt O08689 26-267; O08689 268-376); experiment: as above
T3 construct: signal 1-24
T3 sequence 1: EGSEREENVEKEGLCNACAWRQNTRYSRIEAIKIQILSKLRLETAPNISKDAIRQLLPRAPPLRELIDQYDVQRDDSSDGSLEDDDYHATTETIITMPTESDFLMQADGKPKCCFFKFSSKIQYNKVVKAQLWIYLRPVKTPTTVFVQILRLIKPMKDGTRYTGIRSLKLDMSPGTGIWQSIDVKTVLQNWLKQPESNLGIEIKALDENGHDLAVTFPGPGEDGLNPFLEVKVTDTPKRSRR
T3 sequence 2: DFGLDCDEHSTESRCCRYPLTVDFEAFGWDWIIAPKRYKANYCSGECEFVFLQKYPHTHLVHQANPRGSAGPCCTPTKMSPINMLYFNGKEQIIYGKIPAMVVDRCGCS

Kd (Human latent myostatin): 0.075 nM
koff (Human latent myostatin): 9.52e-05 s⁻¹
kon (Human latent myostatin): 1.27e+06 M⁻¹ s⁻¹
Kd [1]: 0.066 nM
koff [1]: 8.08e-05 s⁻¹
kon [1]: 1.21e+06 M⁻¹ s⁻¹
Kd (Mouse latent myostatin): 0.0471 nM
koff (Mouse latent myostatin): 7.18e-05 s⁻¹
kon (Mouse latent myostatin): 1.52e+06 M⁻¹ s⁻¹
B1: MS_M103205H000-SG1/M103202LO00-SK1 (antibody, human IgG1, kappa, V domains shown)
VH: QVTLKESGPVLVKPTETLTLTCTVSGIDLSSYDISWVRQAPGKGLEWVGIISYAGSTYYASWAKGRLTISKDTSKNQVVLTMTNMDPVDTATYYCARGVPAYSTGGDLWGQGTLVTVSS
VL: DIVMTQSPATLSLSPGERATLSCQSSQSVYDNNWLSWFQQKPGQPPKLLIYWASTLASGVPSRFSGSGSGTDFTLTISSLQPEDAATYYCAGGYGGGLYAFGQGTKVEIKR
notes: Humanized MST1032, not pH-dependent; also called MS1032LO00-SG1; Ab001
